These results are taken from article PMC13022406, “Amino acid and viral binding by the high-affinity Cationic Amino acid Transporter 1 (CAT1) from Mus musculus” (Nature Communications, 2026).

First the molecules themselves.
B1: Friend Murine Leukemia Virus receptor binding domain (domain or fragment, UniProt P03390 35-270, looked up)
chain: AAPGSSPHQVYNITWEVTNGDRETVWAISGNHPLWTWWPVLTPDLCMLALSGPPHWGLEYQAPYSSPPGPPCCSGSSGSSAGCSRDCDEPLTSLTPRCNTAWNRLKLDQVTHKSSEGFYVCPGSHRPREAKSCGGPDSFYCASWGCETTGRVYWKPSSSWDYITVDNNLTTSQAVQVCKDNKWCNPLAIQFTNAGKQVTSWTTGHYWGLRLYVSGRDPGLTFGIRLRYQNLGPRVP
modifications: N-linked glycans at Asn46 and Asn202
notes: the previously crystallized construct (PDB 1AOL); Residues 43-265 were built in the cryo-EM model; also called FrMLV-RBD; source: adherent HEK293T cells (lentiviral expression), secreted, purified (Ni-NTA, SEC)
B2: Cationic Amino acid Transporter 1 (CAT1) from Mus musculus, purified (receptor)
chain: not shown
modifications: N-linked glycans at Asn223 and Asn229

Test [1] deals with B2. As to the kind of experiment: cryo-EM structure; MmCAT1:FrMLV-RBD complex purified by SEC in LMNG/CHS; apo and with 34 mM arginine, 20 mM lysine or 20 mM ornithine. Particulars: both partners purified. (In general: Size exclusion chromatography separates by hydrodynamic size, large species first.)
In test [2] the target is B1. As to the kind of experiment: BLI; MmCAT1 (100 nM, twin-strep and GFP tag) loaded on Strep-Tactin XT probes (Gator Pivot); FrMLV-RBD at 2.7 uM, 900, 300, 100 and 33.3 nM; 25 mM HEPES pH 7.5, 125 mM NaCl, 0.003% LMNG, 0.0006% CHS; room temperature; 5 min association, 5 min dissociation. Particulars: both partners purified. For orientation: Biolayer interferometry detects binding as a change in optical thickness at a sensor tip.

With B1, the stoichiometry N (usually the number of molecules, sites or subunits per partner or assembly) in test [1] stood at 1.

In the case of B2, in test [2], the dissociation constant Kd – broadly, the concentration at which binding is half-saturated – was found to be 9.7 nM.
